How the values were obtained:
[1] = target: ASC^FL (from His-MBP-ASC^FL after removal of His-MBP by TEV) (UniProt Q9ULZ3 1-195); test: pull-down
[2] = target: endogenous ASC of THP-1 cells (human (endogenous in THP-1), UniProt Q9ULZ3 1-195); test: co-IP
Chain of endogenous ASC of THP-1 cells (Q9ULZ3 whole entry): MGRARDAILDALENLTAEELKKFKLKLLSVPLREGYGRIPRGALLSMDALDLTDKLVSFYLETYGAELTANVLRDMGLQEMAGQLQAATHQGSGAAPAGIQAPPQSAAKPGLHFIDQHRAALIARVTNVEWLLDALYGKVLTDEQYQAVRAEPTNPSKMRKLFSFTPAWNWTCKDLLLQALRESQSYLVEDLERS

Chain of ASC^FL (from His-MBP-ASC^FL after removal of His-MBP by TEV) (Q9ULZ3 whole entry): as above

Binder | binding result [1] | stoichiometry N [2]
His-GFP-caspase-1^CARD (domain or fragment, UniProt P29466 1-91, looked up) MADKVLKEKRKLFIRSMGEGTINGLLDELLQTRVLNKEEMEKVKRENATVMDKTRALIDSVIPKGAQACQICITYICEEDSYLAGTLGLSA | binds | 
endogenous caspase-1 of THP-1 cells (enzyme, human (endogenous in THP-1), UniProt P29466 1-404, looked up) MADKVLKEKRKLFIRSMGEGTINGLLDELLQTRVLNKEEMEKVKRENATVMDKTRALIDSVIPKGAQACQICITYICEEDSYLAGTLGLSADQTSGNYLNMQDSQGVLSSFPAPQAVQDNPAMPTSSGSEGNVKLCSLEEAQRIWKQKSAEIYPIMDKSSRTRLALIICNEEFDSIPRRTGAEVDITGMTMLLQNLGYSVDVKKNLTASDMTTELEAFAHRPEHKTSDSTFLVFMSHGIREGICGKKHSEQVPDILQLNAIFNMLNTKNCPSLKDKPKVIIIQACRGDSPGVVWFKDSVGVSGNLSLPTTEEFEDDAIKKAHIEKDFIAFCSSTPDNVSWRHPTMGSVFIGRLIEHMQEYACSCDVEEIFRKVRFSFEQPDGRAQMPTTERVTLTRCFYLFPGH |  | ~3.5 fold (caspase-1 to ASC)
